# According to PMC3570535:
# Tested on: His-DLA2 (RBP63, Cr-E2) (Chlamydomonas reinhardtii)
# Experiment: filter binding
# Settings: 5 mM Mg2+; 6.7 pM RNA; 20 mM HEPES/KOH pH 7.8, 5 mM MgCl2, 60 mM KCl, RT; 5 min (UV cross-linking, 254 nm, 1 J/cm2) or 15 min (filter binding); native fractions dialyzed to 30 mM …
substance,measurement,value
psbA 5' UTR RNA,Kd,51 nM
